From patent US11219221B2 (FarmHannong Co., Ltd., priority 2017, dated 2022) come the findings set out here.

For assay [1], the system named is CyPPO17. Put plainly: Herbicide tolerance test of CyPPO17 wild type and variants in PPO-deficient E. coli BT3(ΔPPO). The assay is classed as cell-based, Thermosynechococcus sp. NK55a. As to conditions: BT3(ΔPPO) transformants; for Herbicide tolerance, tiafenacil: 37° C., 16 to 20 hours. On the procedure: The mutated CyPPO gene obtained from the Example 2 was transformed to BT3 (ΔPPO) strain which is deficient of PPO activity and cultured in LB media with PPO-inhibiting herbicide, thereby examining whether growth of transformed BT3 was not inhibited.
BT3 competent cells were transformed with the pET303-CyPPO16 and pET303-CyPPO17 plasmids and those with a mutation(s) constructed in Example 2 respectively, and were cultured in LB agar media containing carbenicillin (Gold Biotechnology, Co., Ltd.).
Single colony of E. coli transformed with each CyPPO gene was cultured in 3 ml of LB broth containing carbenicillin overnight, and then was subcultured until absorbance (0D600) reached 0.5 to 1. Then, it was diluted with LB broth to OD600=0.5. Again, the diluted solution was serially diluted 4 times by a factor of one tenth.
The LB agar media (LB 25 g/l, Bacto agar 15 g/l) containing carbenicillin (100 μg/ml) and 0 to 4,000 μM of various herbicides dissolved in DMSO was prepared. Next, 10 μl of each diluted solution was dropped on the plate and cultured at 37° C. under light (Tables 7 and 9, FIGS. 2 to 6, and 18 to 22) or dark (Tables 8 and 10, FIGS. 7 to 17, and 23 to 33) for 16 to 20 hours. Then, extent of tolerance was evaluated.
The extent of herbicide tolerance of the mutated genes was evaluated by comparing that of mutated genes with that of wild type. The relative tolerance was represented with “+” as a factor of 10 times. Evaluation result was listed in Tables 7 to10 and FIGS. 2 to 33:
In Tables 7 to 10, tolerance level was presented as of tolerance of wild type and of variants equivalent to that of wild type, and was done as ‘+’ per each 10 fold resistance until ‘+++++’ as maximal resistance. (Tolerance level was evaluated by relative growth level of variants to that of wild type in the media containing highest concentration of herbicide; ‘+’=1-9 fold higher tolerance, ‘++’=10-99 fold higher tolerance, ‘+++’=100-999 fold higher tolerance, ‘++++’=1,000-9,999 fold higher tolerance, ‘+++++’=more than 10,000 fold higher tolerance)
The concentrations of herbicides were written above the photographs of tolerance test. A dilution series (0D600=0.5, 0.05, 0.005, 0.0005, 0.00005) was made and spotted on LB agar plates supplemented with herbicides.

The subject of assay [2] is CyPPO17. The assay can be described thus: PPO enzyme activity of MBP-fused CyPPO17 wild type and variants. The assay is classed as biochemical, Thermosynechococcus sp. NK55a. As to conditions: PPO enzyme activity relative to wild type; MBP-fused protein, 50 μM protoporphyrinogen IX, room temperature, 30 min. How it is done:
Thus, PPO proteins of wild type and variants were expressed as fused to MBP and were used for experiments.
The following process for purification of PPO protein was performed in a 4° C. cold room. Amylose resin (NEB) was packed to 1.5×15 cm column (Bio-Rad, Econo Columns 1.5×15 cm, glass chromatography column, max. vol), and the obtained protein extracts were loaded to the column at a flow rate of 0.2 ml/min. The column was washed with 3 column volumes of buffer and the presence of protein in the washing solution was examined. When the protein was no longer detected, the washing procedure was terminated. Then, the MBP-PPO protein was eluted with approximately 2 column volumes of buffer containing 20 mM maltose. The protein concentration of each eluent was determined and the elution was stopped when the protein was no longer detected. Ten microliter of each fraction was investigated for protein quantification and SDS-PAGE analysis. The highly pure fractions of PPO protein variants were used for the enzyme assay.
Since protoporphyrinogen IX, a substrate of PPO protein, was not commercially available, it was chemically synthesized in the laboratory. Overall process was performed in dark under nitrogen stream. […] of protoporphyrin IX was dissolved in 20 ml of 20% (v/v) EtOH, and stirred under dark condition for 30 minutes. The obtained protoporphyrin IX solution was put into a 15 ml screw tube in an amount of 800 μl, and flushed with nitrogen gas for 5 minutes. To this, 1.5 g of sodium amalgam was added and vigorously shaken for 2 minutes. The lid was opened to exhaust hydrogen gas in the tube. Thereafter, the lid was closed and incubated for 3 minutes. The protoporphyrinogen IX solution was filtered using syringe and cellulose membrane filter. […] To determine the enzyme activity of PPO protein, a reaction mixture was prepared with the following composition (based on 10 ml): 50 mM Tris-Cl (pH 8.0); 50 mM NaCl; 0.04% (v/v) Tween 20; 40 mM glucose (0.072 g); 5 units glucose oxidase (16.6 mg); and 10 units catalase (1 μl).
Hundred and eighty microliters of a reaction mixture containing the purified PPO protein were placed in 96 well plates and 20 μl of […] were added. […] The reaction proceeded at room temperature for 30 min and the fluorescence of protoporphyrin IX was measured using Microplate reader (Sense, Hidex) (excitation: 405 nm; emission: 633 nm). […] To this, 2.7 N HCl was added, and the absorbance at 408 nm was measured. A standard curve was generated using standard protoporphyrin IX, and PPO activity was measured by calibration of protoporphyrin IX using the standard curve of protoporphyrin IX.
Activities of variants were presented relatively compared to that of wild type.

Setting [3] is: one amino acid mutation, light, relative to wild type at highest concentration (50, 100 μM).
[4] abbreviates: one amino acid mutation, light, relative to wild type at highest concentration (5, 25 μM).

Positions count from the first letter of the chain named. Names and notes keep the numbering of the source.

B1: F359V: CyPPO17 variant (protein)
chain: MEVDVAIVGGGLSGLSVAWRLQQSAPQYSGVLLEASDRLGGNITTQGAEGFVWELGPNSFAPTPALLQLIAEVGLHSELIRGDRHLPRYIYWRGELYPLEPTRPLALATSNLLSPWGKVRAALGALGFVPPYLGSGDESVNSFFRRHLGQEVAERLVAPFVSGVYAGDPQQLSAAAAFRRIAQLEKLGGGLIAGALRLRRQQPPKPRPPAEVQMRPGELGSFKEGLAALPRAIAQQLKAPVHLQTPVEAITPEPNGGYLLRSGEQTWQARSVVLATPAYQTAALVAPFQPAIARVLAAIPYPTVACVVLAYPAGLGRSVRPGFGVLIPRGQGIRTLGTIWSSCLFPQRTPAGWQVFTSVIGGATDPDLASLREEAIVQQVQQDLTRLLDLPAAKARLLGMKVWRRAIPQYLVGYPQQWQQVTHALSQTPGLFLCSNYAEGVALGDRVEHGNRTAAAVAAYLSGGQS
modifications: Synthetic (Protoporphyrinogen IX oxidase (CyPPO17) of Thermosynechococcus sp. NK55a)
notes: CyPPO17 variant
On to B1, for which, in the assay with CyPPO17 [1] (setting [3]), the “Herbicide tolerance, tiafenacil” value is “++ (‘++’=10-99 fold higher tolerance)” and the “Herbicide tolerance, flumioxazin” value was “++ (‘++’=10-99 fold higher tolerance)”. Also, the “Herbicide tolerance, pyraflufen-ethyl” value in the assay with CyPPO17 [1] (one amino acid mutation, light, relative to wild type at highest concentration (5, 10 μM)) is listed as “++ (‘++’=10-99 fold higher tolerance)”. Also, in the assay on CyPPO17 [1] (setting [4]), the “Herbicide tolerance, acifluorfen” value was “+ (‘+’=1-9 fold higher tolerance)”; the “Herbicide tolerance, fomesafen” value is listed as “+ (‘+’=1-9 fold higher tolerance)”; the “Herbicide tolerance, pentoxazone” value is “++ (‘++’=10-99 fold higher tolerance)”; the “Herbicide tolerance, pyraclonil” value is on record as “+ (‘+’=1-9 fold higher tolerance)”. In addition, the “Herbicide tolerance, sulfentrazone” value in the assay on CyPPO17 [1] (setting [4]) is “++ (‘++’=10-99 fold higher tolerance)”. The “Herbicide tolerance, saflufenacil” value in the assay with CyPPO17 [1] (one amino acid mutation, light, relative to wild type at highest concentration (50, 200 μM)) is given as “+++ (‘+++’=100-999 fold higher tolerance)”. The “Activity (%)” value with CyPPO17 [2] is 84%.

B2: F359I: CyPPO17 variant (protein)
chain: B1 chain with V359I
modifications: Synthetic (Protoporphyrinogen IX oxidase (CyPPO17) of Thermosynechococcus sp. NK55a)
notes: CyPPO17 variant
Take B2: the “Activity (%)” value in the assay with CyPPO17 [2] was found to be 92%.

B3: F359M: CyPPO17 variant (protein)
chain: B1 chain with V359M
modifications: Synthetic (Protoporphyrinogen IX oxidase (CyPPO17) of Thermosynechococcus sp. NK55a)
notes: CyPPO17 variant
B3: the “Activity (%)” value in the assay with CyPPO17 [2] turned out to be 90%.

B4: L326T: CyPPO17 variant (protein)
chain: B1 chain with L326T, V359F
modifications: Synthetic (Protoporphyrinogen IX oxidase (CyPPO17) of Thermosynechococcus sp. NK55a)
notes: CyPPO17 variant
Take B4: in the assay on CyPPO17 [2], the “Activity (%)” value is listed as 96%.

B5: F359T: CyPPO17 variant (protein)
chain: B1 chain with V359T
modifications: Synthetic (Protoporphyrinogen IX oxidase (CyPPO17) of Thermosynechococcus sp. NK55a)
notes: CyPPO17 variant
For the molecule B5, the “Activity (%)” value in the assay with CyPPO17 [2] is 56%.

B6: L326T + F359M: CyPPO17 variant (protein)
chain: B1 chain with L326T, V359M
modifications: Synthetic (Protoporphyrinogen IX oxidase (CyPPO17) of Thermosynechococcus sp. NK55a)
notes: CyPPO17 variant
As for B6, the “Herbicide tolerance, tiafenacil” value in the assay on CyPPO17 [1] (two or more amino acid mutations, dark, relative to wild type at highest concentration (50, 200 μM)) is listed as “++++ (‘++++’=1,000-9,999 fold higher tolerance)”. Also, the “Herbicide tolerance, flumioxazin” value with CyPPO17 [1] (two or more amino acid mutations, dark, relative to wild type at highest concentration (100, 200 μM)) is reported as “++++ (‘++++’=1,000-9,999 fold higher tolerance)”. For the same molecule, the “Herbicide tolerance, sulfentrazone” value with CyPPO17 [1] (two or more amino acid mutations, dark, relative to wild type at highest concentration (200, 400 μM)) is given as “+++ (‘+++’=100-999 fold higher tolerance)”. Moreover, the “Activity (%)” value in the assay on CyPPO17 [2] stood at 74%.

B7: R88A: CyPPO17 variant (protein)
chain: B1 chain with R88A, V359F
modifications: Synthetic (Protoporphyrinogen IX oxidase (CyPPO17) of Thermosynechococcus sp. NK55a)
notes: CyPPO17 variant
For B7, the “Activity (%)” value in the assay on CyPPO17 [2] is 70%.

B8: F160A: CyPPO17 variant (protein)
chain: B1 chain with F160A, V359F
modifications: Synthetic (Protoporphyrinogen IX oxidase (CyPPO17) of Thermosynechococcus sp. NK55a)
notes: CyPPO17 variant
With B8, the “Activity (%)” value in the assay with CyPPO17 [2] was found to be 63%.

B9: I339T: CyPPO17 variant (protein)
chain: B1 chain with I339T, V359F
modifications: Synthetic (Protoporphyrinogen IX oxidase (CyPPO17) of Thermosynechococcus sp. NK55a)
notes: CyPPO17 variant
As to B9, the “Activity (%)” value in the assay with CyPPO17 [2] worked out at 48%.
